Assay results reported in US20240425567A1.

Experiments:
[1] = target: antigen of the binding ELISA (not given); experiment: binding ELISA relative to reference standard; 2 to 8 C inverted, 12 months
[2] = target: antigen of the binding ELISA (not given); experiment: binding ELISA relative to reference standard; 2 to 8 C inverted, 3 months
[3] = target: antigen of the binding ELISA (not given); experiment: binding ELISA relative to reference standard; 2 to 8 C inverted, 1 month
[4] = target: antigen of the binding ELISA (not given); experiment: binding ELISA relative to reference standard; 2 to 8 C inverted, 6 months
[5] = target: antigen of the binding ELISA (not given); experiment: binding ELISA relative to reference standard; 2 to 8 C inverted, initial
[6] = target: antigen of the binding ELISA (not given); experiment: binding ELISA relative to reference standard; 25 C upright, 6 months
[7] = target: antigen of the binding ELISA (not given); experiment: binding ELISA relative to reference standard; 25 C inverted, 2 months
[8] = target: antigen of the binding ELISA (not given); experiment: binding ELISA relative to reference standard; 25 C inverted, 3 months
[9] = target: antigen of the binding ELISA (not given); experiment: binding ELISA relative to reference standard; 40 C inverted, initial
[10] = target: antigen of the binding ELISA (not given); experiment: binding ELISA relative to reference standard; 40 C inverted, 1 month
[11] = target: antigen of the binding ELISA (not given); experiment: binding ELISA relative to reference standard; 25 C inverted, initial
[12] = target: antigen of the binding ELISA (not given); experiment: binding ELISA relative to reference standard; 40 C inverted, 0.5 month
[13] = target: antigen of the binding ELISA (not given); experiment: binding ELISA relative to reference standard; 25 C upright, initial
[14] = target: antigen of the binding ELISA (not given); experiment: binding ELISA relative to reference standard; 25 C inverted, 0.5 month
[15] = target: antigen of the binding ELISA (not given); experiment: binding ELISA relative to reference standard; 25 C inverted, 1 month
[16] = target: antigen of the binding ELISA (not given); experiment: binding ELISA relative to reference standard; 2 to 8 C upright, initial

B1: ADI-58125 (antibody, human IgG1, lambda, V domains shown)
VH: EVQLVESGGGLVKPGGSLRLSCAASGFTFSSYYMNWVRQAPGKGLEWVSSISEDGYSTYYPDSLKGRFTISRDSAKNSLYLQMNSLRADDTAVYYCARDFSGHTAWAGTGFEYWGQGTLVTVSS
VL: QSVLTQPPSVSGAPGQRITISCTGSSSNIGAGYDVHWYQQLPGTAPKLLIYGSSSRNSGVPDRFSGSKSGTSASLAITGLQAEDEADYYCQSYDSSLSVLYTFGTGTKVTVLG
Question: Which results are given for B1?
Answer: Binding ELISA, % of reference standard activity (% of reference standard activity) [1]: 93; Binding ELISA, % of reference standard activity (% of reference standard activity) [2]: 111; Binding ELISA, % of reference standard activity (% of reference standard activity) [3]: 101; Binding ELISA, % of reference standard activity (% of reference standard activity) [4]: 108; Binding ELISA, % of reference standard activity (% of reference standard activity) [5]: 114; Binding ELISA, % of reference standard activity (% of reference standard activity) [6]: 91; Binding ELISA, % of reference standard activity (% of reference standard activity) [7]: 111; Binding ELISA, Reference Standard activity % (% of reference standard activity) [7]: 111; Binding ELISA, % of reference standard activity (% of reference standard activity) [8]: 94; Binding ELISA, % of reference standard activity (% of reference standard activity) [9]: 114; Binding ELISA, Reference Standard activity % (% of reference standard activity) [9]: 114; Binding ELISA, % of reference standard activity (% of reference standard activity) [10]: 94; Binding ELISA, Reference Standard activity % (% of reference standard activity) [10]: 94; Binding ELISA, % of reference standard activity (% of reference standard activity) [11]: 114; Binding ELISA, Reference Standard activity % (% of reference standard activity) [11]: 114; Binding ELISA, % of reference standard activity (% of reference standard activity) [12]: 99; Binding ELISA, Reference Standard activity % (% of reference standard activity) [12]: 99; Binding ELISA, % of reference standard activity (% of reference standard activity) [13]: 114; Binding ELISA, Reference Standard activity % (% of reference standard activity) [13]: 114; Binding ELISA, % of reference standard activity (% of reference standard activity) [14]: 109; Binding ELISA, Reference Standard activity % (% of reference standard activity) [14]: 109; Binding ELISA, % of reference standard activity (% of reference standard activity) [15]: 102; Binding ELISA, Reference Standard activity % (% of reference standard activity) [15]: 102; Binding ELISA, % of reference standard activity (% of reference standard activity) [16]: 114
